One experiment deals with FcRn (UniProt P55899). Put plainly: SPR. For orientation: In SPR one partner is held on a chip, and binding of the other changes the refractive index at the surface.
A further experiment has as its target alpha-HER2 CH1 ADC (UniProt P01857). To be noted: pH 7.3; not stated (pH 7.3).
Experiment [1] has as its target alpha-HER2 CH1 tag (trastuzumab with aldehyde Tag C) (UniProt P01857). To be noted: pH 7.3; not stated (pH 7.3).
A further experiment has as its target alpha-HER2 CT ADC (UniProt P01857). To be noted: pH 7.3; not stated (pH 7.3).
Experiment [2] has as its target alpha-HER2 CT tag (trastuzumab with aldehyde Tag G) (UniProt P01857). Conditions: pH 7.3; not stated (pH 7.3).
A further experiment concerns the target alpha-HER2 LC ADC (UniProt P01857). Conditions: pH 7.3; not stated (pH 7.3).
Experiment [3] deals with alpha-HER2 LC tag (trastuzumab with light-chain aldehyde tag). To be noted: pH 7.3; not stated (pH 7.3).
Experiment [4] concerns the target alpha-HER2 untagged (trastuzumab) (UniProt P01857). Conditions: pH 7.3; not stated (pH 7.3).
Experiment [5] has as its target alpha-HER2-DM1 ADC (in-house T-DM1 analogue) none in sequence; heterogeneous lysine conjugation with SMCC-DM1 (DAR 3.4) (UniProt P01857). Conditions: pH 7.3; not stated (pH 7.3).

The Kd is the free concentration of one partner at which half of the binding sites on the other are occupied at equilibrium, for simple one-to-one binding. In the experiment with FcRn, “α-HER2-DM1 ADC (trastuzumab conjugated through conventional lysine chemistry to SMCC-DM1) (antibody)” showed a % Bound after 5 s at pH 7.3 of 14.9% and a Kd of 5 nM.
The substance “α-HER2 CH1 ADC (CH1-tagged trastuzumab conjugated to HIPS-Glu-PEG2-maytansine) (antibody)” displayed a Kd with FcRn of 4.8 nM. That is a single-digit nanomolar value.
On to “α-HER2 CT ADC (CT-tagged trastuzumab conjugated to HIPS-Glu-PEG2-maytansine) (antibody)”, for which, in the experiment with FcRn, the % Bound after 5 s at pH 7.3 came to 12% and the Kd amounted to 4.4 nM.
Taken in the same sequence, the figures for “α-HER2 LC tag (trastuzumab with the aldehyde tag in the light chain) (antibody)” were 11% and 4.7 nM.
The substance “α-HER2 untagged (trastuzumab) (antibody)” displayed an equilibrium dissociation constant (Kd) with FcRn of 5.2 nM.
Consider “α-HER2 CH1 tag (trastuzumab with the aldehyde tag in the CH1 domain, Tag C) (antibody)”, for which, in the experiment with FcRn, the % Bound after 5 s at pH 7.3 was 9.9% and the dissociation constant Kd came to 5.2 nM.
Taken in the same sequence, the figures for “α-HER2 LC ADC (LC-tagged trastuzumab conjugated to HIPS-Glu-PEG2-maytansine) (antibody)” were 10.9% and 4.8 nM.
For Neonatal Fc receptor (FcRn), the % Bound after 5 s came out at 9.5 % bound in the experiment with alpha-HER2 CH1 ADC; 9.9 % bound in experiment [1]; 12 % bound with alpha-HER2 CT ADC; 9.9 % bound in experiment [2]; 10.9 % bound in the experiment with alpha-HER2 LC ADC; 11 % bound in experiment [3]. Moreover, the % Bound after 5 s was 8.6 % bound in [4] and 14.9 % bound in [5].
As to “α-HER2 CT tag (trastuzumab with the aldehyde tag at the heavy chain C-terminus, Tag G) (antibody)”, in the experiment with FcRn, the % Bound after 5 s at pH 7.3 stood at 9.9% and the Kd stood at 5.8 nM.

These data come from paper PMC4215875.
